Measurements taken from paper PMC6949242.

Legend:
[1] = target: FOXO1 DNA-binding domain (UniProt Q12778); experiment: NMR; details: FOXO1 alone, 50 mM Bis-Tris, 150 mM NaCl, pH 6.5, ITC at 25 °C, NMR 1H-15N HSQC with 100 uM FOXO1
[2] = target: FOXO1 DNA-binding domain (UniProt Q12778); experiment: ITC; details: FOXO1 alone; 50 mM Bis-Tris, 150 mM NaCl, pH 6.5; ITC at 25 °C; NMR 1H-15N HSQC with 100 uM FOXO1
[3] = target: FOXO1 DNA-binding domain;ETS1 DNA-binding domain (UniProt Q12778+P14921); experiment: ITC; details: FOXO1 titrated into equimolar ETS1 + DNA; Kd of FOXO1; 50 mM Bis-Tris, 150 mM NaCl, pH 6.5; ITC at 25 °C; NMR 1H-15N HSQC with 100 uM FOXO1
[4] = target: FOXO1 DNA-binding domain;ETS1 R409A R409A (UniProt Q12778+P14921); experiment: ITC; details: FOXO1 titrated into equimolar ETS1 R409A + DNA; Kd of FOXO1; 50 mM Bis-Tris, 150 mM NaCl, pH 6.5; ITC at 25 °C; NMR 1H-15N HSQC with 100 uM FOXO1
[5] = target: FOXO1 DNA-binding domain;ETS1 R409H R409H (UniProt Q12778+P14921); experiment: ITC; details: FOXO1 titrated into equimolar ETS1 R409H + DNA; Kd of FOXO1; 50 mM Bis-Tris, 150 mM NaCl, pH 6.5; ITC at 25 °C; NMR 1H-15N HSQC with 100 uM FOXO1
[6] = target: FOXO1 DNA-binding domain;ETS1 Y410A Y410A (UniProt Q12778+P14921); experiment: ITC; details: FOXO1 titrated into equimolar ETS1 Y410A + DNA; Kd of FOXO1; 50 mM Bis-Tris, 150 mM NaCl, pH 6.5; ITC at 25 °C; NMR 1H-15N HSQC with 100 uM FOXO1

For “TGACGCACCGGAAGTTAGG (double strand) [ω-high]”, the Kd ([1]; fit of residue G161 peak) was 122000 nM and the Kd ([1]; mean of selected peaks, fast exchange) was 167000 nM.
“CTGTAAACAGGAAGTGGAG (double strand) [ω-none]” was tested, and the Kd [2] was 24 nM and the Kd [3] was 26 nM.
For AAAACAACAGGAAGTATTT (double strand) [ω], the Kd [2] was 352 nM, the Kd [3] was 44 nM and the Kd [4] was 151 nM. For the same sequence, the Kd [5] was 67 nM and the Kd [6] was 313 nM.
